Assay results as given in the supplement of paper PMC10065799, “High-throughput profiling of sequence recognition by tyrosine kinases and SH2 domains using bacterial peptide display” (eLife, 2023).

System: c-Src;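 further: 11-residue human phosphosite peptides and single-mutation variants displayed on the E. coli surface, counted by deep sequencing, each peptide's frequency after selection divided by its frequency in the unselected input library; frequency after pTyr selection over input frequency; kinase dosed for 20-30% of maximal phosphorylation in three min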
Experiment: phosphorylation enrichment, bacterial display (enrichment ratio); higher = better substrate or ligand; peptides without Tyr show the background
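Wherever SH2 binding enrichment of the phosphorylated peptide, bacterial display is given: peptide library displayed on the E. coli surface as eCPX fusions, selected cells deep-sequenced, score is each peptide's frequency after selection divided by its frequency in the input.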

Row | Sequence | phosphorylation enrichment
1 | GFKVRYATGSI [FGFR1_Y210_W213G_YF] | 0.343
2 | KLADMYGGGKD [CDH1_Y876_E880K] | 0.353
3 | HTKKNYGNSSV [HDX_Y197_A193T] | 0.472
4 | TCFDKYTGSTF [FN1_Y101_N104S_YF] | 0.529
5 | ECKASYPGKIT [PRSS3_Y232] | 0.438
6 | GMAHNYRNSSQ [AASS_Y188] | 0.386
7 | EFITRYIASLK [PSMA7_Y110_YF] | 0.435
8 | RKLVDYDSAQH [BIN1_Y150_R154Q] | 0.541
9 | KALKQYRASPS [DDX27_Y763_G766S] | 0.43
10 | DEQKKYYNAMK [SCN5A_Y1494_E1489D] | 0.39
11 | GDLTDYLMKIL [ACTA1_Y190_R185G] | 0.323
12 | ISIFYYAKGQP [MPZ_Y82_H81Y] | 0.649
13 | QNTGDYYDLYG [PTPN11_Y62] | 5.07
14 | PAVGIYNDNIN [CDCP1_Y707] | 1.12
15 | KAEELYIGVTV [EFHC2_Y509] | 2.2
16 | QNTGDYCDLFG [PTPN11_Y62_Y63C_YF] | 0.789
17 | ETGEPYRLSPE [EIF4G1_Y311] | 0.527
18 | MTYVFYRENLR [NLRP14_Y443] | 1.36
19 | LAVGDYMRRQK [ATM_Y1915_V1913G] | 0.503
20 | ADKAAYLQNLN [MYH1_Y389] | 0.601
21 | RKQQLYIAMEE [CCDC39_Y593_T594I] | 0.753
22 | CTTIHYNFMHN [TP53_Y234_C238H_YF] | 0.432
23 | NVTRKYTRQIL [MAP3K2_Y463] | 0.373
24 | KVDKEYEVHVR [GHR_Y226_R229H] | 0.444
25 | SDFSRYARTSI [TERT_Y949_S948R_YF] | 0.442
26 | GEDLSYGDLPP [IRS1_Y151_V154L] | 0.582
27 | GKGGSYSKAEW [HLA-E_Y341] | 0.375
28 | QNTGDDYDLYG [PTPN11_Y62_Y62D] | 1.99
29 | KIRDWYQRQRP [KRT14_Y151] | 0.502

Molecular target: Grb2 SH2 (UniProt P62993)
Experiment: SH2 binding enrichment of the phosphorylated peptide, bacterial display (enrichment ratio); higher = better substrate or ligand; peptides without Tyr show the background

Chain of Grb2 SH2 (P62993 whole entry, looked up): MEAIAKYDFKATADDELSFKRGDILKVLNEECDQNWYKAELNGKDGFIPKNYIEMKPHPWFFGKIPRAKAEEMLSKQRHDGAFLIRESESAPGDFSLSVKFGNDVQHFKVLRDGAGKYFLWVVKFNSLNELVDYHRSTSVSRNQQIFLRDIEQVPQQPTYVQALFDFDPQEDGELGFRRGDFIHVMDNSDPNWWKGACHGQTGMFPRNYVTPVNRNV

Row | Sequence | SH2 binding enrichment
30 | GFKVRYATGSI [FGFR1_Y210_W213G_YF] | 1.28
31 | KLADMYGGGKD [CDH1_Y876_E880K] | 0.779
32 | HTKKNYGNSSV [HDX_Y197_A193T] | 0.907
33 | TCFDKYTGSTF [FN1_Y101_N104S_YF] | 1.29
34 | ECKASYPGKIT [PRSS3_Y232] | 0.823
35 | GMAHNYRNSSQ [AASS_Y188] | 0.702
36 | EFITRYIASLK [PSMA7_Y110_YF] | 1.32
37 | RKLVDYDSAQH [BIN1_Y150_R154Q] | 1.1
38 | KALKQYRASPS [DDX27_Y763_G766S] | 0.801
39 | DEQKKYYNAMK [SCN5A_Y1494_E1489D] | 1.01
40 | GDLTDYLMKIL [ACTA1_Y190_R185G] | 1.44
41 | ISIFYYAKGQP [MPZ_Y82_H81Y] | 0.78
42 | QNTGDYYDLYG [PTPN11_Y62] | 0.911
43 | PAVGIYNDNIN [CDCP1_Y707] | 0.749
44 | KAEELYIGVTV [EFHC2_Y509] | 0.648
45 | QNTGDYCDLFG [PTPN11_Y62_Y63C_YF] | 0.827
46 | ETGEPYRLSPE [EIF4G1_Y311] | 0.883
47 | MTYVFYRENLR [NLRP14_Y443] | 1.24
48 | LAVGDYMRRQK [ATM_Y1915_V1913G] | 0.597
49 | ADKAAYLQNLN [MYH1_Y389] | 0.659
50 | RKQQLYIAMEE [CCDC39_Y593_T594I] | 0.916
51 | CTTIHYNFMHN [TP53_Y234_C238H_YF] | 1.07
52 | NVTRKYTRQIL [MAP3K2_Y463] | 0.853
53 | KVDKEYEVHVR [GHR_Y226_R229H] | 0.804
54 | SDFSRYARTSI [TERT_Y949_S948R_YF] | 1.05
55 | GEDLSYGDLPP [IRS1_Y151_V154L] | 0.868
56 | GKGGSYSKAEW [HLA-E_Y341] | 0.949
57 | QNTGDDYDLYG [PTPN11_Y62_Y62D] | 0.92
58 | KIRDWYQRQRP [KRT14_Y151] | 0.84
